B1: PKD2L1 (parent)
chain: YSGGGYYLDLPGSRQGSAEALRAL

Variants of: B1
Assay: protein stability index of a GFP-peptide fusion (GPS, HEK-293T) (PSI 1-6); higher = more stable
Settings: c terminus: a fixed tail appended
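Further: lentivirally expressed fusions sorted by FACS into six bins by GFP to DsRed ratio, PSI derived from sequencing read proportions per bin multiplied by bin number.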

Variant | protein stability index
YSGGGYYLDLFGSRQGSAEALRAL | 2.12
YSGGGYYLDLTGSRQGSAEALRAL | 1.86
YSGGGYYLDLMGSRQGSAEALRAL | 2.68
YSGGGYYLDLHGSRQGSAEALRAL | 1.44
YSGGGYYLDLVGSRQGSAEALRAL | 1.85
YSGGGYYLDLNGSRQGSAEALRAL | 1.97
YSGGGYYLDLQGSRQGSAEALRAL | 2.53
YSGGGYYLDLDGSRQGSAEALRAL | 1.21
YSGGGYYLDLCGSRQGSAEALRAL | 1.82
YSGGGYYLDLSGSRQGSAEALRAL | 1.73
YSGGGYYLDLIGSRQGSAEALRAL | 1.94
YSGGGYYLDLKGSRQGSAEALRAL | 1.91
YSGGGYYLDLWGSRQGSAEALRAL | 2.52
YSGGGYYLDLEGSRQGSAEALRAL | 1.29
YSGGGYYLDLLGSRQGSAEALRAL | 2.54
YSGGGYYLDLAGSRQGSAEALRAL | 1.89
YSGGGYYLDLRGSRQGSAEALRAL | 3.15
YSGGGYYLDLGGSRQGSAEALRAL | 3.43
YSGGGYYLDLYGSRQGSAEALRAL | 2
YSGGGYYLDLPGSRQLSAEALRAL | 1.57
YSGGGYYLDLPGSRQKSAEALRAL | 1.97
YSGGGYYLDLPGSRQQSAEALRAL | 2
YSGGGYYLDLPGSRQNSAEALRAL | 1.51
YSGGGYYLDLPGSRQCSAEALRAL | 1.86

Variant | protein stability index
YSGGGYYLDLPGSRQISAEALRAL | 2.3
YSGGGYYLDLPGSRQPSAEALRAL | 1.92
YSGGGYYLDLPGSRQMSAEALRAL | 1.02
YSGGGYYLDLPGSRQDSAEALRAL | 2.02
YSGGGYYLDLPGSRQFSAEALRAL | 1.38
YSGGGYYLDLPGSRQRSAEALRAL | 1.98
YSGGGYYLDLPGSRQSSAEALRAL | 2.27
YSGGGYYLDLPGSRQESAEALRAL | 1.92
YSGGGYYLDLPGSRQASAEALRAL | 1.94
YSGGGYYLDLPGSRQHSAEALRAL | 2.66
YSGGGYYADLPGSRQGSAEALRAL | 2.12
YSGGGYYYDLPGSRQGSAEALRAL | 2.03
YSGGGYYMDLPGSRQGSAEALRAL | 3.21
YSGGGYYFDLPGSRQGSAEALRAL | 2.66
YSGGGYYIDLPGSRQGSAEALRAL | 2.77
YSGGGYYDDLPGSRQGSAEALRAL | 1.99
YSGGGYYGDLPGSRQGSAEALRAL | 1.67
YSGGGYYKDLPGSRQGSAEALRAL | 1.42
YSGGGYYVDLPGSRQGSAEALRAL | 2.45
YSGGGYYRDLPGSRQGSAEALRAL | 2.08
YSGGGYYWDLPGSRQGSAEALRAL | 2.72
YSGGGYYSDLPGSRQGSAEALRAL | 1.37
YSGGGYYNDLPGSRQGSAEALRAL | 1.73
YSGGGYYEDLPGSRQGSAEALRAL | 2.9

Variant | protein stability index
YSGGGYYPDLPGSRQGSAEALRAL | 1.99
YSGGGYYQDLPGSRQGSAEALRAL | 2.26
YSGGGYYCDLPGSRQGSAEALRAL | 1.69
YSGGGYYTDLPGSRQGSAEALRAL | 3.55
YSGGGYYHDLPGSRQGSAEALRAL | 4.24
YSGGGYYLDLPGSRMGSAEALRAL | 2.81
YSGGGYYLDLPGSRKGSAEALRAL | 2.5
YSGGGYYLDLPGSRHGSAEALRAL | 1.28
YSGGGYYLDLPGSRCGSAEALRAL | 3.34
YSGGGYYLDLPGSRPGSAEALRAL | 2.03
YSGGGYYLDLPGSRVGSAEALRAL | 2.99
YSGGGYYLDLPGSRSGSAEALRAL | 1.83
YSGGGYYLDLPGSRWGSAEALRAL | 1.73
YSGGGYYLDLPGSRNGSAEALRAL | 1.94
YSGGGYYLDLPGSRIGSAEALRAL | 3.59
YSGGGYYLDLPGSRDGSAEALRAL | 1.98
YSGGGYYLDLPGSRTGSAEALRAL | 1.21
YSGGGYYLDLPGSRYGSAEALRAL | 2.17
YSGGGYYLDLPGSREGSAEALRAL | 2.16
YSGGGYYLDLPGSRAGSAEALRAL | 2.41
YSGGGYYLDLPGSRLGSAEALRAL | 1.74
YSGGGYYLDLPGSRFGSAEALRAL | 1.61
YSGGGYYLDLPGSRGGSAEALRAL | 1.47
YSGGGYYLDLPGSRRGSAEALRAL | 2.27

Variant | protein stability index
YSGGGTYLDLPGSRQGSAEALRAL | 2.75
YSGGGVYLDLPGSRQGSAEALRAL | 2.24
YSGGGSYLDLPGSRQGSAEALRAL | 3.28
YSGGGWYLDLPGSRQGSAEALRAL | 5.5
YSGGGYYLDLPRSRQGSAEALRAL | 1.59
YSGGGYYLDLPHSRQGSAEALRAL | 1.96
YSGGGYYLDLPSSRQGSAEALRAL | 2.21
YSGGGYYLDLPYSRQGSAEALRAL | 1.49
YSGGGYYLDLPISRQGSAEALRAL | 1.55
YSGGGYYLDLPPSRQGSAEALRAL | 2.05
YSGGGYYLDLPTSRQGSAEALRAL | 1.88
YSGGGYYLDLPFSRQGSAEALRAL | 1.57
YSGGGYYLDLPWSRQGSAEALRAL | 2.39
YSGGGYYLDLPASRQGSAEALRAL | 2.05
YSGGGYYLDLPDSRQGSAEALRAL | 2.09
YSGGGYYLDLPCSRQGSAEALRAL | 1.24
YSGGGYYLDLPLSRQGSAEALRAL | 2.15
YSGGGYYLDLPMSRQGSAEALRAL | 2.54
YSGGGYYLDLPESRQGSAEALRAL | 2
YSGGGYYLDLPVSRQGSAEALRAL | 2.22
YSGGGYYLDLPNSRQGSAEALRAL | 2.36
YSGGGYYLDLPQSRQGSAEALRAL | 1.95
YSGGGYYLDLPKSRQGSAEALRAL | 1.74
YSGGGYYLKLPGSRQGSAEALRAL | 2.59

Variant | protein stability index
YSGGGYYLWLPGSRQGSAEALRAL | 2.87
YSGGGYYLQLPGSRQGSAEALRAL | 1.24
YSGGGYYLSLPGSRQGSAEALRAL | 1.83
YSGGGYYLMLPGSRQGSAEALRAL | 3.33
YSGGGYYLPLPGSRQGSAEALRAL | 1.66
YSGGGYYLTLPGSRQGSAEALRAL | 3.34
YSGGGYYLFLPGSRQGSAEALRAL | 3.62
YSGGGYYLNLPGSRQGSAEALRAL | 2.46
YSGGGYYLLLPGSRQGSAEALRAL | 4.93
YSGGGYYLELPGSRQGSAEALRAL | 2.01
YSGGGYYLGLPGSRQGSAEALRAL | 3.74
YSGGGYYLRLPGSRQGSAEALRAL | 2
YSGGGYYLILPGSRQGSAEALRAL | 3.81
YSGGGYYLALPGSRQGSAEALRAL | 4.81
YSGGGYYLHLPGSRQGSAEALRAL | 1.95
YSGGGYYLYLPGSRQGSAEALRAL | 4.13
YSGGGYYLDLPGSNQGSAEALRAL | 1.63
YSGGGYYLDLPGSWQGSAEALRAL | 2.36
YSGGGYYLDLPGSMQGSAEALRAL | 2.08
YSGGGYYLDLPGSPQGSAEALRAL | 1.37
YSGGGYYLDLPGSKQGSAEALRAL | 2.56
YSGGGYYLDLPGSQQGSAEALRAL | 1.55
YSGGGYYLDLPGSDQGSAEALRAL | 1.82
YSGGGYYLDLPGSLQGSAEALRAL | 2.71

Variant | protein stability index
YSGGGYYLDLPGSTQGSAEALRAL | 2.15
YSGGGYYLDLPGSVQGSAEALRAL | 1.91
YSGGGYYLDLPGSAQGSAEALRAL | 3.28
YSGGGYYLDLPGSFQGSAEALRAL | 1.32
YSGGGYYLDLPGSHQGSAEALRAL | 1.84
YSGGGYYLDLPGSIQGSAEALRAL | 2.55
YSGGGYYLDLPGSSQGSAEALRAL | 1.57
YSGGGYYLDLPGSCQGSAEALRAL | 1.55
YSGGGYYLDLPGSEQGSAEALRAL | 1.75
YSGGGYYLDLPGSGQGSAEALRAL | 2.24
YSGGGYYLDLPGSYQGSAEALRAL | 2
YSGGGYYLDLPGNRQGSAEALRAL | 1.38
YSGGGYYLDLPGWRQGSAEALRAL | 1.78
YSGGGYYLDLPGRRQGSAEALRAL | 2.38
YSGGGYYLDLPGERQGSAEALRAL | 1.61
YSGGGYYLDLPGTRQGSAEALRAL | 1.82
YSGGGYYLDLPGPRQGSAEALRAL | 1.85
YSGGGYYLDLPGKRQGSAEALRAL | 1.82
YSGGGYYLDLPGCRQGSAEALRAL | 2.23
YSGGGYYLDLPGVRQGSAEALRAL | 2.3
YSGGGYYLDLPGDRQGSAEALRAL | 1.12
YSGGGYYLDLPGGRQGSAEALRAL | 2.58
YSGGGYYLDLPGARQGSAEALRAL | 1.45
YSGGGYYLDLPGQRQGSAEALRAL | 2.28

Variant | protein stability index
YSGGGYYLDLPGLRQGSAEALRAL | 1.5
YSGGGYYLDLPGHRQGSAEALRAL | 1.58
YSGGGYYLDLPGFRQGSAEALRAL | 1.92
YSGGGYYLDLPGMRQGSAEALRAL | 2.4
YSGGGYYLDLPGYRQGSAEALRAL | 1.96
YSGGGYYLDLPGIRQGSAEALRAL | 1.25
YSGGGYNLDLPGSRQGSAEALRAL | 2.59
YSGGGYRLDLPGSRQGSAEALRAL | 2.06
YSGGGYWLDLPGSRQGSAEALRAL | 1.91
YSGGGYMLDLPGSRQGSAEALRAL | 1.61
YSGGGYDLDLPGSRQGSAEALRAL | 3.25
YSGGGYILDLPGSRQGSAEALRAL | 1.39
YSGGGYVLDLPGSRQGSAEALRAL | 2.21
YSGGGYHLDLPGSRQGSAEALRAL | 2.26
YSGGGYSLDLPGSRQGSAEALRAL | 3.21
YSGGGYKLDLPGSRQGSAEALRAL | 2.75
YSGGGYQLDLPGSRQGSAEALRAL | 2.4
YSGGGYELDLPGSRQGSAEALRAL | 3.37
YSGGGYLLDLPGSRQGSAEALRAL | 1.66
YSGGGYPLDLPGSRQGSAEALRAL | 2.96
YSGGGYTLDLPGSRQGSAEALRAL | 2.71
YSGGGYALDLPGSRQGSAEALRAL | 2.17
YSGGGYCLDLPGSRQGSAEALRAL | 1.93
YSGGGYFLDLPGSRQGSAEALRAL | 1.56

Variant | protein stability index
YSGGGYGLDLPGSRQGSAEALRAL | 2.24
YSGGGYYLDHPGSRQGSAEALRAL | 1.58
YSGGGYYLDDPGSRQGSAEALRAL | 2.02
YSGGGYYLDKPGSRQGSAEALRAL | 1.73
YSGGGYYLDAPGSRQGSAEALRAL | 2.27
YSGGGYYLDMPGSRQGSAEALRAL | 1.66
YSGGGYYLDIPGSRQGSAEALRAL | 2.33
YSGGGYYLDEPGSRQGSAEALRAL | 2.69
YSGGGYYLDWPGSRQGSAEALRAL | 1.14
YSGGGYYLDGPGSRQGSAEALRAL | 1.56
YSGGGYYLDSPGSRQGSAEALRAL | 1.46
YSGGGYYLDCPGSRQGSAEALRAL | 2.31
YSGGGYYLDPPGSRQGSAEALRAL | 1.9
YSGGGYYLDVPGSRQGSAEALRAL | 2.17
YSGGGYYLDRPGSRQGSAEALRAL | 2.97
YSGGGYYLDFPGSRQGSAEALRAL | 2.09
YSGGGYYLDYPGSRQGSAEALRAL | 1.81
YSGGGYYLDTPGSRQGSAEALRAL | 2.35
YSGGGYYLDQPGSRQGSAEALRAL | 1.27
YSGGGYYLDNPGSRQGSAEALRAL | 1.6
